Measurements from article PMC10571791.

What was measured:
[1] = cell-surface flow cytometry, MDA-MB-231
[2] = cell-surface flow cytometry, MCF-7
[3] = glycan lost, control: WT-PD-L1 MDA cells
[4] = glycan lost, control: WT-PD-L1 MCF-7 cells

Substance	expression_or_secretion ([1]; glycan changed form, control: vehicle-treated WT-PD-L1 MDA cells)	expression_or_secretion ([2]; glycan changed form, control: vehicle-treated WT-PD-L1 MCF-7 cells)	expression_or_secretion [1, 3]	expression_or_secretion [2, 4]
PD-L1: kifunensine	no change	no change	–	–
PD-L1: N35A-PD-L1	–	–	no change	no change
PD-L1: N192A-PD-L1	–	–	no change	no change
PD-L1: N219A-PD-L1	–	–	no change	no change
PD-L1: N200A-PD-L1	–	–	no change	no change
